Reference: patent US20240352134A1 (NANJING IMMUNOPHAGE BIOTECH, published 2024)
Positions count from the first letter of the chain named. Values belong to the binder of their own block, whether it stands above or below them.

How the values were obtained:
[1] = molecular target: T1, human CCR8 (human, UniProt P51685 1-355); assay: cell-based or functional assay
[2] = molecular target: T1, human CCR8; assay: cell-based or functional assay; remark: listed apart in the source
[3] = molecular target: T1, human CCR8; assay: FACS on human CCR8-expressing 293F cells
[4] = molecular target: T1, human CCR8; assay: FACS as in Example 2; T0 (the reference itself)
[5] = molecular target: T1, human CCR8; assay: FACS as in Example 2; antibody after 40° C. 1 W; ratio to T0
[6] = molecular target: T1, human CCR8; assay: FACS as in Example 2; antibody after 40° C. 2 W; ratio to T0
[7] = molecular target: T1, human CCR8; assay: FACS as in Example 2; antibody after 40° C. 4 W; ratio to T0
[8] = molecular target: T1, human CCR8; assay: FACS as in Example 2; antibody after Oxidation 24 h; ratio to T0
[9] = molecular target: T1, human CCR8; assay: FACS as in Example 2; antibody after Freeze/thaw 5FT; ratio to T0
[10] = molecular target: T1, human CCR8; assay: cell-based or functional assay; remark: listed apart in the source
[11] = molecular target: T1, human CCR8; assay: FACS on 293F-CCR8 cells
Description: The affinity of anti-CCR8 antibodies was evaluated by FACS. […] Affinity analyses were generally carried out as follows. […] The test antibodies were diluted with PBS/0.5 BSA (1:3 series dilution from 225 μg/mL to 0.00381 μg/mL). The transfected cells along with parent non-transfected cells were distributed into 96-well round-bottom polystyrene plates and incubated with the diluted antibodies on ice for 20-30 minutes. Next, the samples were washed with PBS/0.5 BSA and the cells were centrifuged. The pelleted cell samples were incubated with the second antibody of anti-mouse IgG-FITC-at 1:300 dilution in 100 μL PBS/0.5% BSA on ice for 30 minutes, and then washed with PBS/0.5% BSA, followed by pelleting the cells. The cell pellets were re-suspended in PBS/0.5% BSA for reading, and samples were analyzed using CYTOFLEX (Beckman).

[12] = molecular target: T1, human CCR8; assay: binding affinity EC50, comparison of Table 12 (FACS on CCR8-expressing cells)
[13] = molecular target: T1, human CCR8; assay: FACS on human CCR8-expressing 293F cells; remark: listed apart in the source

T1 sequence (P51685 whole entry): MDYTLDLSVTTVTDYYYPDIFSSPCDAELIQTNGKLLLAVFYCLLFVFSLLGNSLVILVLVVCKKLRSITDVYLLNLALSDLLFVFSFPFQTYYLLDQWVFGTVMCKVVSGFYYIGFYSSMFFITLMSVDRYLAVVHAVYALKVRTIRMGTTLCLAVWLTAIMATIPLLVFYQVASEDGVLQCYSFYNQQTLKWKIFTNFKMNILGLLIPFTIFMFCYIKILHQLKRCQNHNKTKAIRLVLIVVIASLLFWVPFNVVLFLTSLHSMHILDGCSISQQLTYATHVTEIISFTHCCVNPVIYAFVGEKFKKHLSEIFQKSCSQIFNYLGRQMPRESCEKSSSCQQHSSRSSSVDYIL

Calcium mobilization IC50 [1]: 25.3 nM
Calcium mobilization IC50 (nM) Ratio; 40° C. 1 W [2]: 3.07
Calcium mobilization IC50 (nM) Ratio; 40° C. 2 W [2]: 1.38
Calcium mobilization IC50 (nM) Ratio; 40° C. 4 W [2]: 2.35
Calcium mobilization IC50 (nM) Ratio; Freeze/thaw 5FT [2]: 0.32
Calcium mobilization IC50 (nM) Ratio; Oxidation 24 h [2]: 1.14
Calcium mobilization IC50 (nM) Ratio; T0 [2]: 1
EC50 [3]: 0.47 nM
Affinity EC50 (nM) Ratio [4]: 1
Affinity EC50 (nM) Ratio [5]: 0.91
Affinity EC50 (nM) Ratio [6]: 1.31
Affinity EC50 (nM) Ratio [7]: 1.1
Affinity EC50 (nM) Ratio [8]: 1.71
Affinity EC50 (nM) Ratio [9]: 2.43
B1: 1G17hz3 (antibody, V domains shown)
VH: QVQLVQSGAEVKKPGASVKVSCKASGYTFADYEMHWVRQAPGQGLEWMGAIDPETGRTAYAQKFQGRVTMTADRSTSTAYMELSSLRSEDTAVYYCTRRAYWGGWGQGTLVTVSS
VL: DVVMTQSPLSLPVTLGQPASISCRSSQSLVHSSGNTYLHWYQQRPGQSPRLLIYKVSNRFSGVPDRFSGSGSGTDFTLKISRVEAEDVGVYFCSQSTHVPYTFGQGTKLEIK
notes: Humanized variant of 1G17

EC50 [3]: 0.451 nM
B2: 1G17hz0 (antibody, V domains shown)
VH: QVQLQQSGAELVRPGASVTLSCKASGYTFADYEMHWVKQTPVLGLEWIGAIDPETGRTAYNQKFKFKATLTADRSSSTAYMELRSLTSEDSAVYYCTRRAYWGGWGQGTTLTVSS
VL: B1 VL with S7T, T14S, Q17D, P18Q, Q42L, R44K, R50K, V88L, Q105G
notes: same VH and VL as mouse 1G17

EC50 [3]: 333 nM
B3: 1G17hz2 (antibody, V domains shown)
VH: B1 VH with M48I, A50I, A59S, V68A, M70L
VL: B1 VL with H39N, F60D
notes: Humanized variant of 1G17

Tango IC50 [10]: 0.45 nM
EC50 [11]: 1.29 nM
B4: 3O20 (antibody, V domains shown)
VH: EVQLVESGGGLVQPKGSLKLSCATSGFSFNAYAMNWVRQAPGKGLEWVGRIRSKSNNYATYYADSVKGRFTISRDDSKTILYLQMNTLKTEDTAIYYCVRGGYHGNSAYFDVWGTGTSVTVSS
VL: DIVMTQAAPSVPVTPGESVSISCRSSKSLLHSNGNTYLYWFLQRPGQSPQLLIYRMSNLASGVPDRFSGSGSGTAFTLRISRVEAEDVGVYYCLQHLEYPFTFGSGTKLEIK
notes: Mouse hybridoma monoclonal antibody

EC50 [3]: 0.185 nM
B5: 3O20hz0 (antibody, V domains shown)
VH: B4 VH
VL: B4 VL
notes: same VH and VL as mouse 3O20

EC50 [3]: 0.309 nM
B6: 3F11hz0 (antibody, V domains shown)
VH: EVQLVESGGGLVQPKGSLKLSCAASGFSFNTYAMNWVRQAPGKGLEWVARIRSKSNYYATYYADSVKDRFTISRDDSESMLYLQMNNLKTEDTAMYYCVRGRELGDYYAMDYWGQGTSVTVSS
VL: B4 VL with D65N, L94M
notes: same VH and VL as mouse 3F11

EC50 [12]: 0.65 nM
B7: TPP-23411 (antibody, V domains shown)
VH: EVQLLESGGGLVQPGGSLRLSCAASGFTFSSYGMHWVRQAPGKGLEWVSAINWNGGSTGYADSVKGRFTISRDNSKNTLYLQMNSLRAEDTAVYYCARGHHSGYDGRFFDYWGQGTLVTVSS
VL: QSVLTQPPSVSGAPGQRVTISCTGSSSNIGAGYNVHWYQQLPGTAPKLLIYTNNRRPSGVPDRFSGSKSGTSASLAISGLRSEDEADYYCAAWDASLSGWVFGGGTKLTVLG

EC50 [3]: 98.5 nM
B8: 3F11hz2 (antibody, V domains shown)
VH: EVQLVESGGGLVQPGGSLKLSCAASGFSFNTYAMNWVRQASGKGLEWVGRIRSKSNYYATYYAASVKGRFTISRDDSKNTAYLQMNSLKTEDTAVYYCVRGRELGDYYAMDYWGQGTLVTVSS
VL: DIVMTQSPLSLPVTPGEPASISCRSSKSLLHSNGNTYLDWFLQKPGQSPQLLIYRMSNRASGVPDRFSGSGSGTDFTLKISRVEAEDVGVYYCMQHLEYPFTFGQGTKLEIK
notes: Humanized variant of 3F11

EC50 [3]: 241 nM
B9: 3O20hz3 (antibody, V domains shown)
VH: B4 VH with K15G, N35H, P41S, Y61A, D64A, I80T, T87S, I95V, T115Q, S118L
VL: B8 VL with N33Q, M94L
notes: Humanized variant of 3O20

binding result [13]: binds
B10: 3F11hz6 (antibody, V domains shown)
VH: B8 VH
VL: B8 VL with N33S
notes: Humanized variant of 3F11

binding result [13]: binds
B11: 3F11hz1 (antibody, V domains shown)
VH: B8 VH with N35H, V99T
VL: B8 VL with F41Y
notes: Humanized variant of 3F11

binding result [13]: binds
B12: 3F11hz5 (antibody, V domains shown)
VH: B8 VH
VL: B8 VL with D39E, F41Y
notes: Humanized variant of 3F11

EC50 [3]: 508 nM
B13: 3O20hz1 (antibody, V domains shown)
VH: EVQLVESGGGLVQPGGSLKLSCAASGFSFNAYAMHWVRQASGKGLEWVGRIRSKSNNYATAYAASVKGRFTISRDDSKNTAYLQMNSLKTEDTAVYYCVRGGYHGNSAYFDVWGQGTLVTVSS
VL: B8 VL with F41Y, M94L
notes: Humanized variant of 3O20

Calcium mobilization IC50 [1]: 7.39 nM
Calcium mobilization IC50 (nM) Ratio; 40° C. 1 W [2]: 3.02
Calcium mobilization IC50 (nM) Ratio; 40° C. 2 W [2]: 0.98
Calcium mobilization IC50 (nM) Ratio; 40° C. 4 W [2]: 1.86
Calcium mobilization IC50 (nM) Ratio; Freeze/thaw 5FT [2]: 1.37
Calcium mobilization IC50 (nM) Ratio; Oxidation 24 h [2]: 1.42
Calcium mobilization IC50 (nM) Ratio; T0 [2]: 1
EC50 [3]: 0.135 nM
Affinity EC50 (nM) Ratio [4]: 1
Affinity EC50 (nM) Ratio [5]: 0.79
Affinity EC50 (nM) Ratio [6]: 1.14
Affinity EC50 (nM) Ratio [7]: 1.65
Affinity EC50 (nM) Ratio [8]: 2.13
Affinity EC50 (nM) Ratio [9]: 1.22
B14: 3O20hz2 (antibody, V domains shown)
VH: B13 VH with A24T, H35N, A61Y, N79T, A81L
VL: B8 VL with D39Y, R59L, M94L
notes: Humanized variant of 3O20

binding result [13]: binds
B15: 3F11hz3 (antibody, V domains shown)
VH: B8 VH with S28T, N30S, A64D, G68D
VL: B8 VL with R59L
notes: Humanized variant of 3F11
